Assay [1] concerns the target HLA-PEPTIDE target G8: HLA-A*02:01_…, recombinant soluble complex (human, enzymatically biotinylated (BirA) for screening and BLI). The experiment in a line: phage display, scFv ELISA on pHLA against negative control pHLAs. In general terms: ELISA stands for enzyme-linked immunosorbent assay.
Assay [2] concerns the target HLA-PEPTIDE target G10: HLA-A*01:01_…, recombinant soluble complex (human, enzymatically biotinylated (BirA)). The description is as above.

B1: scFv G8(5F02) (scFv, V domains shown)
VH: QVQLVQSGAEVKKPGASVKVSCKASGYTFTGYYIHWVRQAPGQGLEWMGVINPSGGSTTYAQKLQGRVTMTRDTSTSTVYMELSSLRSEDTAVYYCARDRDSSWTYYYYGMDVWGQGTTVTVSS
VL: EIVMTQSPATLSVSPGERATLSCRASQSVGNSLAWYQQKPGQAPRLLIYGASTRATGIPARFSGSGSGTEFTLTISSLQSEDFAVYYCQQYGSSPYTFGQGTKVEIK
As for B1, in assay [1], the binding result was “binds”.

B2: scFv G10(3E04) (scFv, V domains shown)
VH: QVQLVQSGAEVKKPGASVKVSCKASGNTFIGYYVHWVRQAPGQGLEWVGIINPNGGSISYAQKFQGRVTMTRDTSTSTVYMELSSLRSEDTAVYYCARGSGDPNYYYYYGLDVWGQGTTVTVSS
VL: DIQMTQSPSSLSASVGDRVTITCQASQDISNYLNWYQQKPGKAPKLLIYAASNLQSGVPSRFSGSGSGTDFTLTISSLQPEDFATYYCQQANSLPYTFGQGTKVEIK
With B2, the binding result in assay [2] is on record as “binds”.

B3: scFv G8(2B05) (scFv, V domains shown)
VH: EVQLLESGGGLVQPGGSLRLSCAASGFDFSIYSMNWVRQAPGKGLEWVSAISGSGGSTYYADSVKGRFTISRDNSKNTLYLQMNSLRAEDTAVYYCASNGNYYGSGSYYNYWGQGTLVTVSS
VL: DIQMTQSPSSLSASVGDRVTITCRASQSISRWLAWYQQKPGKAPKLLIYAASSLQSGVPSRFSGSGSGTDFTLTISSLQPEDFATYYCQQYSTYPITIGQGTKVEIK
Consider B3, for which, in assay [1], the binding result was “binds”.

B4: scFv G10(2C04) (scFv, V domains shown)
VH: QVQLVQSGAEVKKPGASVKVSCKASGGTFSNSIINWVRQAPGQGLEWMGWMNPNSGNTNYAQKFQGRVTMTRDTSTSTVYMELSSLRSEDTAVYYCAREQWPSYWYFDLWGRGTLVTVSS
VL: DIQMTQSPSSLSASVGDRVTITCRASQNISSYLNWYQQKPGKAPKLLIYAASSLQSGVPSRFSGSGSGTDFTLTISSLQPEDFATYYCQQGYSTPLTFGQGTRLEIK
As to B4, the binding result in assay [2] is recorded as “binds”.

B5: scFv G8(1A04) (scFv, V domains shown)
VH: QVQLVQSGAEVKKPGASVKVSCKASGYPFIGQYLHWVRQAPGQGLEWMGIINPSGDSATYAQKFQGRVTMTRDTSTSTVYMELSSLRSEDTAVYYCARDLSYYYGMDVWGQGTTVTVSS
VL: DIQMTQSPSSLSASVGDRVTITCWASQGISSYLAWYQQKPGKAPKLLIYAASSLQSGVPSRFSGSGSGTDFTLTISSLQPEDFATYYCQQSYNTPWTFGPGTKVDIK
Turning to B5, in assay [1], the binding result is on record as “binds”.

B6: scFv G8(5C03) (scFv, V domains shown)
VH: QVQLVQSGAEVKKPGASVKVSCKASGYTFTSYYMHWVRQAPGQGLEWMGWMNPNSGNTGYAQKFQGRVTMTRDTSTSTVYMELSSLRSEDTAVYYCARGLLGFGEFLTYGMDVWGQGTLVTVSS
VL: DIQMTQSPSSLSASVGDRVTITCRASQGISNWLAWYQQKPGKAPKLLIYAASTLQSGVPSRFSGSGSGTDFTLTISSLQPEDFATYYCQQTYSTPWTFGQGTKLEIK
For the molecule B6, the binding result in assay [1] was “binds”.

B7: scFv G8(4F05) (scFv, V domains shown)
VH: QVQLVQSGAEVKKPGASVKVSCKASGYTFSNMYLHWVRQAPGQGLEWMGWINPNTGDTNYAQTFQGRVTMTRDTSTSTVYMELSSLRSEDTAVYYCARGLYGDYFLYYGMDVWGQGTKVTVSS
VL: DIQMTQSPSSLSASVGDRVTITCRASQGISNYLAWYQQKPGKAPKLLIYAASTLQSGVPSRFSGSGSGTDFTLTISSLQPEDFATYYCQQSYSTPLTFGGGTKVEIK
With B7, the binding result in assay [1] was “binds”.

B8: scFv G10(4D10) (scFv, V domains shown)
VH: QVQLVQSGAEVKKPGASVKVSCKASGYTFTGYYLHWVRQAPGQGLEWMGMIGPSDGSTSYAQKFQGRVTMTRDTSTSTVYMELSSLRSEDTAVYYCARDGDAFDIWGQGTMVTVSS
VL: DIQMTQSPSSLSASVGDRVTITCRASQGISSWLAWYQQKPGKAPKLLIYDASNLETGVPSRFSGSGSGTDFTLTISSLQPEDFATYYCQQSYSTPLTFGGGTKVEIK
As for B8, the binding result in assay [2] is listed as “binds”.

B9: scFv G8(2E06) (scFv, V domains shown)
VH: QVQLVQSGAEVKKPGASVKVSCKASGYTLTTYYMHWVRQAPGQGLEWMGWINPNSGGTNYAQKFQGRVTMTRDTSTSTVYMELSSLRSEDTAVYYCARAVYYDFWSGPFDYWGQGTLVTVSS
VL: DIQMTQSPSSLSASVGDRVTITCRASQGISNSLAWYQQKPGKAPKLLIYAASSLQSGVPSRFSGSGSGTDFTLTISSLQPEDFATYYCQQANSFPWTFGQGTKLEIK
On to B9, for which the binding result in assay [1] is recorded as “binds”.

B10: scFv G10(1H01) (scFv, V domains shown)
VH: QVQLVQSGAEVKKPGASVKVSCKASGYTFTGYYMHWVRQAPGQGLEWMGMIGPSDGSTSYAQKFQGRVTMTRDTSTSTVYMELSSLRSEDTAVYYCARGVGNLDYWGQGTLVTVSS
VL: DIQMTQSPSSLSASVGDRVTITCRASQSISNYLNWYQQKPGKAPKLLIYAASSLQSGVPSRFSGSGSGTDFTLTISSLQPEDFATYYCHQTYSTPLTFGQGTKVEIK
On to B10, for which the binding result in assay [2] is “binds”.

B11: scFv G10(1A07) (scFv, V domains shown)
VH: EVQLLESGGGLVKPGGSLRLSCAASGFTFSSYWMSWVRQAPGKGLEWVSGISARSGRTYYADSVKGRFTISRDDSKNTLYLQMNSLKTEDTAVYYCARDQDTIFGVVITWFDPWGQGTLVTVSS
VL: DIQMTQSPSSLSASVGDRVTITCRASQGISNYLAWYQQKPGKAPKLLIYAASSLQGGVPSRFSGSGSGTDFTLTISSLQPEDFATYYCQQYFTTPYTFGQGTKLEIK
As for B11, the binding result in assay [2] is listed as “binds”.

B12: scFv G8(1D02) (scFv, V domains shown)
VH: EVQLLESGGGLVQPGGSLRLSCAASGFTFSSYWMSWVRQAPGKGLEWVSSISGRGDNTYYADSVKGRFTISRDNSKNTLYLQMNSLRAEDTAVYYCARASGSGYYYYYGMDVWGQGTTVTVSS
VL: DIQMTQSPSSLSASVGDRVTITCQASQDISNYLNWYQQKPGKAPKLLIYAASSLQSGVPSRFSGSGSGTDFTLTISSLQPEDFATYYCQQSYSAPYTFGGGTKVEIK
For the molecule B12, in assay [1], the binding result is reported as “binds”.

B13: scFv G8(1B03) (scFv, V domains shown)
VH: EVQLLESGGGLVQPGGSLRLSCAASGFTFSDYYMSWVRQAPGKGLEWVSGINWNGGSTGYADSVKGRFTISRDNSKNTLYLQMNSLRAEDTAVYYCARVEQGYDIYYYYYMDVWGKGTTVTVSS
VL: DIQMTQSPSSLSASVGDRVTITCRASQSISSYLNWYQQKPGKAPKLLIYKASSLESGVPSRFSGSGSGTDFTLTISSLQPEDFATYYCQQSYSAPYTFGPGTKVDIK
Take B13: in assay [1], the binding result is on record as “binds”.

B14: scFv G8(5G08) (scFv, V domains shown)
VH: QVQLVQSGAEVKKPGASVKVSCKASGYTFTSNYMHWVRQAPGQGLEWMGWMNPNSGNTGYAQKFQGRVTMTRDTSTSTVYMELSSLRSEDTAVYYCARGLYGDYFLYYGMDVWGQGTTVTVSS
VL: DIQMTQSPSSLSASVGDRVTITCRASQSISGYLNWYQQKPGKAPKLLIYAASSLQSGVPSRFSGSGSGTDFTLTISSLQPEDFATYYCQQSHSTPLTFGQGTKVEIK
As for B14, in assay [1], the binding result was “binds”.

B15: scFv G8(1A06) (scFv, V domains shown)
VH: QVQLVQSGAEVKKPGASVKVSCKASGYTFTNYYMHWVRQAPGQGLEWMGWMNPIGGGTGYAQKFQGRVTMTRDTSTSTVYMELSSLRSEDTAVYYCARVYDFWSVLSGFDIWGQGTLVTVSS
VL: DIQMTQSPSSLSASVGDRVTITCRASQAISNSLAWYQQKPGKAPKLLIYAASTLQSGVPSRFSGSGSGTDFTLTISSLQPEDFATYYCGQSYSTPPTFGQGTKLEIK
Take B15: the binding result in assay [1] is reported as “binds”.

B16: scFv G10(1F06) (scFv, V domains shown)
VH: QVQLVQSGAEVKKPGASVKVSCKASGYTFIGYYMHWVRQAPGQGLEWMGMIGPSDGSTSYAQKFQGRVTMTRDTSTSTVYMELSSLRSEDTAVYYCARDSSGLDPWGQGTLVTVSS
VL: DIQMTQSPSSLSASVGDRVTITCRASQSISNYLNWYQQKPGKAPKLLIYKASSLESGVPSRFSGSGSGTDFTLTISSLQPEDFATYYCQQSYIIPYTFGQGTKLEIK
notes: also called G10(1F6)
In the case of B16, the binding result in assay [2] is “binds”.

B17: scFv G10(1E12) (scFv, V domains shown)
VH: QVQLVQSGAEVKKPGASVKVSCKASGYIFTGYYMHWVRQAPGQGLEWMGMIGPSDGSTSYAQKFQGRVTMTRDTSTSTVYMELSSLRSEDTAVYYCAREDDSMDVWGKGTTVTVSS
VL: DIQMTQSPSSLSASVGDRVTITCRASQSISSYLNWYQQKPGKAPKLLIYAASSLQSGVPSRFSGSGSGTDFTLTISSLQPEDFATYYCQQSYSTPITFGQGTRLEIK
Consider B17, for which, in assay [2], the binding result is given as “binds”.

B18: scFv G8(1A03) (scFv, V domains shown)
VH: QVQLVQSGAEVKKPGASVKVSCKASGGTFSRSAITWVRQAPGQGLEWMGWINPNSGATNYAQKFQGRVTMTRDTSTSTVYMELSSLRSEDTAVYYCARDDYGDYVAYFQHWGQGTLVTVSS
VL: DIQMTQSPSSLSASVGDRVTITCRASQSITSYLNWYQQKPGKAPKLLIYDASNLETGVPSRFSGSGSGTDFTLTISSLQPEDFATYYCQQNYNSVTFGQGTKLEIK
For the molecule B18, the binding result in assay [1] is recorded as “binds”.

B19: scFv G10(4D04) (scFv, V domains shown)
VH: QVQLVQSGAEVKKPGASVKVSCKASGYTFTGYYVHWVRQAPGQGLEWMGIIAPSDGSTNYAQKFQGRVTMTRDTSTSTVYMELSSLRSEDTAVYYCARDPGGYMDVWGKGTTVTVSS
VL: DIQMTQSPSSLSASVGDRVTITCRASQSISSYLAWYQQKPGKAPKLLIYDASKLETGVPSRFSGSGSGTDFTLTISSLQPEDFATYYCQQSYGVPTFGQGTKLEIK
For the molecule B19, the binding result in assay [2] is given as “binds”.

B20: scFv G8(1H08) (scFv, V domains shown)
VH: QVQLVQSGAEVKKPGASVKVSCKASGYTFGNYFMHWVRQAPGQGLEWMGMVNPSGGSETFAQKFQGRVTMTRDTSTSTVYMELSSLRSEDTAVYYCAASTWIQPFDYWGQGTLVTVSS
VL: DIQMTQSPSSLSASVGDRVTITCRASQGINSYLAWYQQKPGKAPKLLIYDASNLETGVPSRFSGSGSGTDFTLTISSLQPEDFATYYCQQHNSYPPTFGQGTKLEIK
notes: also called G8-P1H08
B20: the binding result in assay [1] is given as “binds”.

B21: scFv G10(2G11) (scFv, V domains shown)
VH: QVQLVQSGAEVKKPGASVKVSCKASGGTFSTHDINWVRQAPGQGLEWMGVINPSGGSAIYAQKFQGRVTMTRDTSTSTVYMELSSLRSEDTAVYYCARDRGYSYGYFDYWGQGTLVTVSS
VL: DIQMTQSPSSLSASVGDRVTITCRASQDISRYLAWYQQKPGKAPKLLIYDASNLETGVPSRFSGSGSGTDFTLTISSLQPEDFATYYCQQANSFPRTFGQGTKVEIK
For the molecule B21, the binding result in assay [2] was “binds”.

B22: scFv G8(1C01) (scFv, V domains shown)
VH: QVQLVQSGAEVKKPGASVKVSCKASGGTFSSHAISWVRQAPGQGLEWMGVIIPSGGTSYTQKFQGRVTMTRDTSTSTVYMELSSLRSEDTAVYYCARGDYYDSSGYYFPVYFDYWGQGTLVTVSS
VL: DIQMTQSPSSLSASVGDRVTITCRASQNIYTYLNWYQQKPGKAPKLLIYDASNLETGVPSRFSGSGSGTDFTLTISSLQPEDFATYYCQQANGFPLTFGGGTKVEIK
For the molecule B22, in assay [1], the binding result was “binds”.

The values above are taken from patent publication US20220162320A1 (published 2022).
